How the values were obtained:
[1] = biological target: T1, GST-THAP1 fusion protein (pGEX-2T-THAP1) (human, UniProt Q5RCE4 1-213 (Pongo abelii entry)); assay: GST pull-down, immobilized GST-THAP1, in vitro translated 35S-labelled IFNγ
T1 construct: Expressed in E. coli DH5alpha and immobilized on glutathione sepharose; also called GST-THAP1 wild-type; not shown: Glutathione S-transferase (GST) encoded by the pGEX-2T prokaryotic expression vector (Amersham Pharmacia Biotech); N-ter
T1 sequence: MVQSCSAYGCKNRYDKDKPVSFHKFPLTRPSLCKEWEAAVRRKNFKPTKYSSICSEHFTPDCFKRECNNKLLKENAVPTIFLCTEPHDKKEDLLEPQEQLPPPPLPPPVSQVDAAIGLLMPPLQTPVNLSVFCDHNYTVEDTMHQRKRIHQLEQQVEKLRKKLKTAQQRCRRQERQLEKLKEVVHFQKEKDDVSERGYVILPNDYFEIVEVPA
Description: To confirm the interaction observed in yeast two-hybrid system, we performed in vitro GST pull down assays. THAP1, expressed as a GST-tagged fusion protein and immobilized on glutathione sepharose, was incubated with radiolabeled chemokines that were translated in vitro.
In vitro-translated chemokines were generated with the TNT-coupled reticulocyte lysate system (Promega, Madison, Wis., USA) using as templates pGBKT7-CCL21, -CCL19, -CXCL9, -CXCL10 and CXCL11 chemokine vectors (see Example 32) or pCMV-SPORT6-CCL5 plasmid (Image clone No. 4185200). In vitro-translated IFNγ cytokine was generated similarly using as template plasmid pGBKT7-IFNγ. A 25 μvolume of ³⁵S-labelled chemokine was incubated with immobilized GST-THAP1 or GST proteins overnight at 4° C., in the following binding buffer: 10 mM NaPO4 pH 8.0, 140 mM NaCl, 3 mM MgCl₂, 1 mM dithiothreitol (DTT), 0.05% NP40, and 0.2 mM phenylmethyl sulphonyl fluoride (PMSF), 1 mM Na vanadate, 50 mM β-glycerophosphate, 25 μg/ml chymotrypsine, 5 μg/ml aprotinin, and 10 μg/ml leupeptin. Beads were then washed 5 times in 1 ml binding buffer. Bound proteins were eluted with 2×Laemmli SDS-PAGE sample buffer, fractionated by 10% SDS-PAGE and visualized by fluorography using Amplify (Amersham Pharmacia Biotech). GST/THAP1 specifically bound to chemokines CCL21, CCL19, CCL5, CXCL9, CXCL10 and CXCL11 but not cytokine IFNγ (FIGS. 19 and 20). […]

[2] = biological target: T2, Glutathione S-transferase (GST) control protein (pGEX-2T) (UniProt P08515 1-218 = GST); assay: GST pull-down, immobilized GST control, in vitro translated 35S-labelled IFNγ
T2 construct: Negative control immobilized on glutathione sepharose; also called GST beads; immobilized GST alone
T2 sequence (P08515 whole entry): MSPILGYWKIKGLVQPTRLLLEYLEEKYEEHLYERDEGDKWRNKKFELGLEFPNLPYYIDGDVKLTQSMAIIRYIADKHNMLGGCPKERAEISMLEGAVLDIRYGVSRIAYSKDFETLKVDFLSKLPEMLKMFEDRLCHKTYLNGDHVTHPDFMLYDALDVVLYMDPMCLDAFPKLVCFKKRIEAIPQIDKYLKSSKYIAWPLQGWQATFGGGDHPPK
Description: In vitro-translated chemokines were generated with the TNT-coupled reticulocyte lysate system (Promega, Madison, Wis., USA) using as templates pGBKT7-CCL21, -CCL19, -CXCL9, -CXCL10 and CXCL11 chemokine vectors (see Example 32) or pCMV-SPORT6-CCL5 plasmid (Image clone No. 4185200). In vitro-translated IFNγ cytokine was generated similarly using as template plasmid pGBKT7-IFNγ. A 25 μvolume of ³⁵S-labelled chemokine was incubated with immobilized GST-THAP1 or GST proteins overnight at 4° C., in the following binding buffer: 10 mM NaPO4 pH 8.0, 140 mM NaCl, 3 mM MgCl₂, 1 mM dithiothreitol (DTT), 0.05% NP40, and 0.2 mM phenylmethyl sulphonyl fluoride (PMSF), 1 mM Na vanadate, 50 mM β-glycerophosphate, 25 μg/ml chymotrypsine, 5 μg/ml aprotinin, and 10 μg/ml leupeptin. Beads were then washed 5 times in 1 ml binding buffer. Bound proteins were eluted with 2×Laemmli SDS-PAGE sample buffer, fractionated by 10% SDS-PAGE and visualized by fluorography using Amplify (Amersham Pharmacia Biotech). GST/THAP1 specifically bound to chemokines CCL21, CCL19, CCL5, CXCL9, CXCL10 and CXCL11 but not cytokine IFNγ (FIGS. 19 and 20). […] CXCL10 also bound to immobilized GST-THAP1 (indicated by ++ in the column labelled “In vitro binding to GST-THAP1”).

human THAP1 (THanatos …) [3] = biological target: T3, human THAP1 (THanatos (death)-Associated Protein-1), full length (human, UniProt Q9NVV9 1-213); assay: yeast two-hybrid, pGADT7-THAP1 with pGBKT7-IFNγ
T3 construct: also called hTHAP1; FLJ10477
T3 sequence: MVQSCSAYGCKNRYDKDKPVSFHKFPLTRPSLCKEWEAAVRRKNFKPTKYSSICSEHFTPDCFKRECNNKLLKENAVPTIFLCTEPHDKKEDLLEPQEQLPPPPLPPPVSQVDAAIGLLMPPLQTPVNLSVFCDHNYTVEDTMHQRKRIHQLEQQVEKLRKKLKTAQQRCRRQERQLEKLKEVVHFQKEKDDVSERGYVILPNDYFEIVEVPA
Description: […]

[4] = biological target: T1, GST-THAP1 fusion protein (pGEX-2T-THAP1); assay: GST pull-down, immobilized GST-THAP1, in vitro translated 35S-labelled mutant
Description: To confirm the results obtained in yeast, THAP1 mutants were also tested in in vitro GST pull down assays. Wild type THAP1 expressed as a GST-tagged fusion protein and immobilized on glutathione sepharose (as described in example 16), was incubated with radiolabeled in vitro translated THAP1 mutants. In vitro-translated THAP1 mutants were generated with the TNT-coupled reticulocyte lysate system (Promega, Madison, Wis., USA) using pGADT7-THAP1-C1, -C2, -C3, -N1, -N2 or -N3 vector as template. 25 μl of each ³⁵S-labelled THAP1 mutant was incubated with immobilized GST or GST-THAP1 wild-type protein overnight at 4° C., in the following binding buffer: 10 mM NaPO4 pH 8.0, 140 mM NaCl, 3 mM MgCl2, 1 mM dithiothreitol (DTT), 0.05% NP40, and 0.2 mM phenylmethyl sulphonyl fluoride (PMSF), 1 mM Na Vanadate, 50 mM β Glycerophosphate, 25 μg/ml chimotrypsine, 5 μg/ml aprotinin, 10 μg/ml Leupeptin. Beads were then washed 5 times in 1 ml binding buffer. Bound proteins were eluted with 2×Laemmli SDS-PAGE sample buffer, fractionated by 10% SDS-PAGE and visualized by fluorography using Amplify (Amersham Pharmacia Biotech). As expected, THAP1-C1, -C2, -C3, -and -N3 interacted with GST/THAP1 (FIG. 16B).

human THAP1 (THanatos …) [5] = biological target: T3, human THAP1 (THanatos …); assay: yeast two-hybrid, pGADT7-THAP1 mutant with pGBKT7-THAP1 wild-type
Description: Two-hybrid interaction between THAP1 mutants and THAP1 wild type was tested by cotransformation of AH109 with pGADT7-THAP1-C1, -C2, -C3, -N1, -N2 or -N3 and pGBKT7-THAP1 wild-type and selection of transformants by His and Ade double auxotrophy according to manufacturer's instructions ([…] two-hybrid system 3, Clontech).

[6] = biological target: T4, human chemokine SLC/CCL21, mature form (amino acids 24-134) (human, UniProt O00585 24-134); assay: yeast two-hybrid, pGADT7-THAP1 mutant with pGBKT7-SLC/CCL21
T4 construct: also called SLC/6Ckine; SLC/CCL21 wild type
T4 sequence: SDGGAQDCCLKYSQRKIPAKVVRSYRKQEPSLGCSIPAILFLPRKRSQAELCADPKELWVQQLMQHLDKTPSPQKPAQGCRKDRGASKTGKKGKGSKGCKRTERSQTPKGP
Description: Two-hybrid interaction between THAP1 mutants and chemokine SLC/CCL21 was tested by cotransformation of AH109 with pGADT7-THAP1-C1, -C2, -C3, -N1, -N2 or -N3 and pGBKT7-SLC/CCL21 and selection of transformants by His and Ade double auxotrophy according to manufacturer's instructions ([…] two-hybrid system 3, Clontech). pGBKT7-SLC/CCL21 vector was generated by subcloning the BamHI SLC/CCL21 fragment from pGBT9-SLC (see example 1) into the unique BamHI cloning site of vector pGBKT7 (Clontech).

Measured: binding result

B1: human cytokine IFNγ (amino acids 21-166) (ligand)
chain: CYCQDPYVKEAENLKKYFNAGHSDVADNGTLFLGILKNWKEESDRKIMQSQIVSFYFKLFKNFKDDQSIQKSVETIKEDMNVKFFNSNKKKRDDFEKLTNYSVTDLNVQRKAIHELIQVMAELSPAAKTGKRKRSQMLFQGRRASQ
notes: Negative control; The range is stated on the GenBank entry; Tested as a Gal4-BD fusion (pGBKT7-IFNγ) and as in vitro translated 35S-labelled protein from that vector; also called interferon gamma; hIFNγ
no binding: [1] | [2] | human THAP1 (THanatos …) [3]

B2: THAP1-N1 deletion mutant (amino acids 1-90) (other)
chain: MVQSCSAYGCKNRYDKDKPVSFHKFPLTRPSLCKEWEAAVRRKNFKPTKYSSICSEHFTPDCFKRECNNKLLKENAVPTIFLCTEPHDKK
notes: Tested as a Gal4-BD or Gal4-AD fusion, as in vitro translated 35S-labelled protein and as an EGFP fusion
no binding: [4] | human THAP1 (THanatos …) [5] | [6]
